From publication PMC2361611
Like-named read-outs stand apart in the source and are kept apart here.

How the values were obtained:
polyubiquitin [1] = molecular target: polyubiquitin (UniProt P0CG48); assay: ELISA; 0.50 ug polyubiquitin dried per well (Nunc MaxiSorp), blocked with 1% BSA; angiocidin or mutants at various concentrations in TBST pH 7.4, 1.5 h, room temperature; detected with biotinylated rabbit antiangiocidin IgG and streptavidin-HRP; fitted to a rectangular hyperbola
polyubiquitin [2] = molecular target: polyubiquitin (UniProt P0CG48)
polyubiquitin [3] = molecular target: polyubiquitin (UniProt P0CG48); assay: ELISA; 0.50 ug polyubiquitin dried per well (Nunc MaxiSorp), blocked with 1% BSA; angiocidin or mutants at various concentrations in TBST pH 7.4, 1.5 h, room temperature; detected with biotinylated rabbit antiangiocidin IgG and streptavidin-HRP; fitted to a rectangular hyperbola; remark: listed apart in the source

| Kd (polyubiquitin [1]) [nM] | Kd (polyubiquitin [3]) [nM] | Substance | endothelial cell apoptotic activity: viability of HUVE cells plated overnight on wells coated with 1 ug protein, Alamar blue assay (fold lower than angiocidin) (polyubiquitin [2]) |
| --- | --- | --- | --- |
| 0.041 | – | angiocidin (his-tagged recombinant, full length) (natural protein) | – |
| 15 | 1.52 | angiocidin mutant M-2 (L216ALAL220 substituted with alanines) (natural protein) | 2 |
